In article PMC9458432 (Nucleic Acids Research, 2022):
Changes are numbered by the printed parent chain.

Experiments:
ΔFOSB Cys172Ser homomers = target: T1, ΔFOSB Cys172Ser homomers (Mus musculus, UniProt P13346, C172S); assay: FP dose-response against ΔFOSB Cys172Ser homomers; assay type: binding; conditions: 50 nM TMR-cdk5, 280 nM protein, compound 0–200 μM
T1 sequence (P13346 2-237 isoform P13346-2 C172S): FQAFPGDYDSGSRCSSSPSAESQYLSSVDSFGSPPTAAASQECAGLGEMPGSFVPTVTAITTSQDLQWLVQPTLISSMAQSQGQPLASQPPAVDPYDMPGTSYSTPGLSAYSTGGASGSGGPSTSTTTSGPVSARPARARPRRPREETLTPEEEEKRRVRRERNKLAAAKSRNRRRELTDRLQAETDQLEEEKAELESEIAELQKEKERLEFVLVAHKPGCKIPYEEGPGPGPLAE

[1] = target: T2, ΔFOSB Cys172Ser/JUND heterodimers (Mus musculus, UniProt P13346+P15066, C172S); assay: FP dose-response against ΔFOSB Cys172Ser/JUND heterodimers; assay type: binding; conditions: 50 nM TMR-cdk5, 280 nM protein, compound 0–200 μM
T2 sequence (P13346 2-237 isoform P13346-2 C172S): T1 sequence (P13346 2-237 isoform P13346-2 C172S)
T2 sequence (P15066 2-341): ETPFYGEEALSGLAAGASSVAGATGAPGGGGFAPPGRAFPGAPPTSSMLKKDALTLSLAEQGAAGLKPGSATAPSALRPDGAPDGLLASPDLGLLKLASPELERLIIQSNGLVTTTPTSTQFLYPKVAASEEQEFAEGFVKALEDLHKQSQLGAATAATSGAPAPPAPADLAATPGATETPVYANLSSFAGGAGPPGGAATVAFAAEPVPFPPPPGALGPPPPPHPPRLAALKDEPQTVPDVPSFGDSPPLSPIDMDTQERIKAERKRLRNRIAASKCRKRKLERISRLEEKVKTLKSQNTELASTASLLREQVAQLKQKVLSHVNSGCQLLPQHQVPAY

[2] = target: T3, ΔFOSB (N(His)6-ΔFOSB);JUND (N(His)6-JUND) (mouse;mouse, UniProt P13346-2;P15066 2-237;2-341, |); assay: fluorescence polarization
T3 sequence 1: T1 sequence (P13346 2-237 isoform P13346-2 C172S) with S171C
T3 sequence 2: T2 sequence (P15066 2-341)

ΔFOSB (N(His)6-ΔFOSB) = target: T4, ΔFOSB (N(His)6-ΔFOSB) (mouse, UniProt P13346-2 2-237); assay: fluorescence polarization
T4 sequence: T1 sequence (P13346 2-237 isoform P13346-2 C172S) with S171C

ΔFOSB Cys172Trp = target: T5, ΔFOSB Cys172Trp (mouse, UniProt P13346-2 2-237, C172W); assay: fluorescence polarization
T5 sequence: T1 sequence (P13346 2-237 isoform P13346-2 C172S) with S171W

[3] = target: T3, ΔFOSB (N(His)6-ΔFOSB);JUND …; assay: EMSA

Molecule: O=C(O)CCc1cc(C(=O)c2ccc(OC3CCCC3)cc2O)ccc1OCc1ccc2c(=O)[nH]oc2c1 [Compound T5224]
- Disruption of DNA binding to ΔFOSB Cys172Ser homomers (ΔFOSB Cys172Ser homomers): similarly well as to the wild-type species
- Disruption of DNA binding to ΔFOSB Cys172Ser/JUND heterodimers [1]: similarly well as to the wild-type species

B1: TMR-cdk5 (dsDNA)
DNA 1: CGTCGGTGACTCAAAACAC
DNA 2: GTGTTTTGAGTCACCGACG
- binding result [2]: binds
- binding result (ΔFOSB (N(His)6-ΔFOSB)): binds
- binding result (ΔFOSB Cys172Trp): binds

B2: BIO-cdk5 (dsDNA)
DNA 1: CGTCGGTGACTCAAAACAC
DNA 2: GTGTTTTGAGTCACCGACG
- binding result [3]: binds
